In US20030113711A1, “Protein kinase peptide substrate determination using peptide libraries” (priority 2001, published 2003):
Where a SMILES comes first, the peptide text is derived from it. The star is where a group is joined. Biotin = O=C1N[C@H]2[C@H](CS[C@H]2CCCCC(=O)*)N1; Ahx = NCCCCCC(=O)O

Experiments:
[1] = biological target: T1, EGFR (Homo sapiens, UniProt P00533); assay: Kinetic evaluation of peptide substrates, varying peptide at fixed ATP (phosphocellulose filter, [γ-33P]ATP); type: biochemical; conditions: ATP concentration >10 × Km (200 μM ATP); for Kcat: varying peptide, 10 minutes at 23° C.; for Km: Km for peptide
Experimental: Peptide sequences identified as preferred substrates for ErbB-2 using the methods described in Laboratory Example 3 were synthesized. The kcat and Km values for each peptide were determined as follows, using the kinases ErbB-2, ErbB-4, and EGFR.
Reactions were performed in 96-well polystyrene round bottom plates in a final volume of 45 μL. Reaction mixtures contained 50 mM MOPS, pH 7.5, 10 mM MnCl2, 1 mM dithiothreitol (DTT), 200 μM ATP, 1.0 μCi [γ-^33P] ATP, and varying concentrations of peptide. The reaction was initiated by adding the purified kinase of interest and halted after 10 minutes at 23° C. (room temperature) by adding 45 μL of 0.5% phosphoric acid in water. A 75 μL aliquot of the halted reaction mixture was then transferred to MAPH phosphocellulose filter plates (Millipore, Bedford, Mass.). The plates were filtered three times with 0.2 mL of 0.5 percent phosphoric acid. Scintillation cocktail (50 μL) was added to each well, and the plate was analyzed by counting in a Packard TOPCOUNT® scintillation counter (Packard Instrument Co., Meriden, Conn.). In these assays, the concentration of ATP was greater than ten-fold higher than the Km for ATP, which permitted the kinetic data to be treated as a pseudo-first-order reaction with varying peptide concentration. All experiments were performed in quadruplicate and the average value for each data point was analyzed. The Km and Vmax values were calculated by fitting the data to the Henri-Michaelis-Menten equation by non-linear regression using SIGMAPLOT® (SPSS Science, Chicago, Ill.). kcat values were calculated using the Vmax value, and are based on the protein concentration of the enzyme preparation and an estimate of purity determined from an evaluation of a Coomassie Blue stained SDS-polyacrylamide gel.

[2] = biological target: T1, EGFR; assay: Two-substrate kinetic comparison with known substrate, peptide and ATP varied simultaneously; type: biochemical; conditions: peptide and ATP concentrations varied simultaneously, two-substrate fit
Experimental: In a separate experiment, the kinetic parameters of both peptide number 1 shown in Table 2, and a peptide with the sequence Biotin-Ahx-G-G-M-E-D-I-Y-F-E-F-M-G-G-K-K-K-amide (SEQ ID NO: 17), which has been previously identified as an ErbB-2 substrate (Jan et. al., (2000), Biochemistry 39: 9786-803), were determined and compared. In this experiment, both peptide and ATP concentrations were varied, and the resulting data was simultaneously fit to an equation representing a two-substrate enzyme reaction using SIGMAPLOT®. Data was collected using the kinases ErbB-2, ErbB-4, and EGFR. The results of this experiment are shown in Table 3 and indicate that for all three kinases tested, peptide number 1 shown in Table 2 is kinetically at least equivalent (based on kcat/Km values) to the known peptide substrate identified by Jan et al.

[3] = biological target: T2, Biotin-Ahx-(SEQ ID NO: 12)-amide
T2 chain: RAHEEIYHFFFAKKK

[4] = biological target: T3, Biotin-Ahx-(SEQ ID NO: 13)-amide
T3 chain: RAHHEIYHFFFAKKK

[5] = biological target: T4, Biotin-Ahx-(SEQ ID NO: 14)-amide
T4 chain: RAHHEEYHFFFAKKK

[6] = biological target: T5, Biotin-Ahx-(SEQ ID NO: 15)-amide
T5 chain: RAHEEEYHFIFAKKK

[7] = biological target: T6, Biotin-Ahx-(SEQ ID NO: 16)-amide
T6 chain: RAHEEEYHFFFAKKK

[8] = biological target: T7, Biotin-Ahx-G-G-M-E-D-I-Y-F-E-F-M-G-G-K-K-K-amide (SEQ ID NO: 17)
T7 chain: GGMEDIYFEFMGGKKK

CC[C@H](C)[C@H](NC(=O)[C@H](CCC(=O)O)NC(=O)[C@H](CCC(=O)O)NC(=O)[C@H](Cc1c[nH]cn1)NC(=O)[C@H](C)NC(=O)[C@H](CCCNC(=N)N)NC(=O)CCCCCNC(=O)CCCC[C@@H]1SC[C@@H]2NC(=O)N[C@@H]21)C(=O)N[C@@H](Cc1ccc(O)cc1)C(=O)N[C@@H](Cc1c[nH]cn1)C(=O)N[C@@H](Cc1ccccc1)C(=O)N[C@@H](Cc1ccccc1)C(=O)N[C@@H](Cc1ccccc1)C(=O)N[C@@H](C)C(=O)N[C@@H](CCCCN)C(=O)N[C@@H](CCCCN)C(=O)N[C@@H](CCCCN)C(N)=O [Peptide 1, Biotin-Ahx-(SEQ ID NO: 12)-amide] ({Biotin-Ahx}-RAHEEIYHFFFAKKK-NH2)
Kcat [1]: 0.102 s⁻¹ | Km [1]: 8 µM | Kcat [2]: 0.0567 s⁻¹ | Km [2]: 128 µM

CC[C@H](C)[C@H](NC(=O)[C@H](Cc1ccccc1)NC(=O)[C@H](Cc1c[nH]cn1)NC(=O)[C@H](Cc1ccc(O)cc1)NC(=O)[C@H](CCC(=O)O)NC(=O)[C@H](CCC(=O)O)NC(=O)[C@H](CCC(=O)O)NC(=O)[C@H](Cc1c[nH]cn1)NC(=O)[C@H](C)NC(=O)[C@H](CCCNC(=N)N)NC(=O)CCCCCNC(=O)CCCC[C@@H]1SC[C@@H]2NC(=O)N[C@@H]21)C(=O)N[C@@H](Cc1ccccc1)C(=O)N[C@@H](C)C(=O)N[C@@H](CCCCN)C(=O)N[C@@H](CCCCN)C(=O)N[C@@H](CCCCN)C(N)=O [Peptide 4, Biotin-Ahx-(SEQ ID NO: 15)-amide] ({Biotin-Ahx}-RAHEEEYHFIFAKKK-NH2)
Kcat [1]: 0.0567 s⁻¹ | Km [1]: 10 µM

CC[C@H](C)[C@H](NC(=O)[C@H](CCC(=O)O)NC(=O)[C@H](Cc1c[nH]cn1)NC(=O)[C@H](Cc1c[nH]cn1)NC(=O)[C@H](C)NC(=O)[C@H](CCCNC(=N)N)NC(=O)CCCCCNC(=O)CCCC[C@@H]1SC[C@@H]2NC(=O)N[C@@H]21)C(=O)N[C@@H](Cc1ccc(O)cc1)C(=O)N[C@@H](Cc1c[nH]cn1)C(=O)N[C@@H](Cc1ccccc1)C(=O)N[C@@H](Cc1ccccc1)C(=O)N[C@@H](Cc1ccccc1)C(=O)N[C@@H](C)C(=O)N[C@@H](CCCCN)C(=O)N[C@@H](CCCCN)C(=O)N[C@@H](CCCCN)C(N)=O [Peptide 2, Biotin-Ahx-(SEQ ID NO: 13)-amide] ({Biotin-Ahx}-RAHHEIYHFFFAKKK-NH2)
Kcat [1]: 0.252 s⁻¹ | Km [1]: 105 µM

C[C@H](NC(=O)[C@H](CCCNC(=N)N)NC(=O)CCCCCNC(=O)CCCC[C@@H]1SC[C@@H]2NC(=O)N[C@@H]21)C(=O)N[C@@H](Cc1c[nH]cn1)C(=O)N[C@@H](Cc1c[nH]cn1)C(=O)N[C@@H](CCC(=O)O)C(=O)N[C@@H](CCC(=O)O)C(=O)N[C@@H](Cc1ccc(O)cc1)C(=O)N[C@@H](Cc1c[nH]cn1)C(=O)N[C@@H](Cc1ccccc1)C(=O)N[C@@H](Cc1ccccc1)C(=O)N[C@@H](Cc1ccccc1)C(=O)N[C@@H](C)C(=O)N[C@@H](CCCCN)C(=O)N[C@@H](CCCCN)C(=O)N[C@@H](CCCCN)C(N)=O [Peptide 3, Biotin-Ahx-(SEQ ID NO: 14)-amide] ({Biotin-Ahx}-RAHHEEYHFFFAKKK-NH2)
Kcat [1]: 0.108 s⁻¹ | Km [1]: 12.2 µM

C[C@H](NC(=O)[C@H](CCCNC(=N)N)NC(=O)CCCCCNC(=O)CCCC[C@@H]1SC[C@@H]2NC(=O)N[C@@H]21)C(=O)N[C@@H](Cc1c[nH]cn1)C(=O)N[C@@H](CCC(=O)O)C(=O)N[C@@H](CCC(=O)O)C(=O)N[C@@H](CCC(=O)O)C(=O)N[C@@H](Cc1ccc(O)cc1)C(=O)N[C@@H](Cc1c[nH]cn1)C(=O)N[C@@H](Cc1ccccc1)C(=O)N[C@@H](Cc1ccccc1)C(=O)N[C@@H](Cc1ccccc1)C(=O)N[C@@H](C)C(=O)N[C@@H](CCCCN)C(=O)N[C@@H](CCCCN)C(=O)N[C@@H](CCCCN)C(N)=O [Peptide 5, Biotin-Ahx-(SEQ ID NO: 16)-amide] ({Biotin-Ahx}-RAHEEEYHFFFAKKK-NH2)
Kcat [1]: 0.04 s⁻¹ | Km [1]: 7.5 µM

CC[C@H](C)[C@H](NC(=O)[C@H](CC(=O)O)NC(=O)[C@H](CCC(=O)O)NC(=O)[C@H](CCSC)NC(=O)CNC(=O)CNC(=O)CCCCCNC(=O)CCCC[C@@H]1SC[C@@H]2NC(=O)N[C@@H]21)C(=O)N[C@@H](Cc1ccc(O)cc1)C(=O)N[C@@H](Cc1ccccc1)C(=O)N[C@@H](CCC(=O)O)C(=O)N[C@@H](Cc1ccccc1)C(=O)N[C@@H](CCSC)C(=O)NCC(=O)NCC(=O)N[C@@H](CCCCN)C(=O)N[C@@H](CCCCN)C(=O)N[C@@H](CCCCN)C(N)=O [Biotin-Ahx-(SEQ ID NO: 17)-amide, Biotin-Ahx-G-G-M-E-D-I-Y-F-E-F-M-G-G-K-K-K-amide, reference compound] ({Biotin-Ahx}-GGMEDIYFEFMGGKKK-NH2)
Kcat [2]: 0.218 s⁻¹ | Km [2]: 899 µM

B1: ErbB-4 (protein)
chain: RRKSIKKKRALRRFLETELVEPLTPSGTAPNQAQLRILKETELKRVKVLGSGAFGTVYKGIWVPEGETVKIPVAIKILNETTGPKANVEFMDEALIMASMDHPHLVRLLGVCLSPTIQLVTQLMPHGCLLEYVHEHKDNIGSQLLLNWCVQIAKGMMYLEERRLVHRDLAARNVLVKSPNHVKITDFGLARLLEGDEKEYNADGGKMPIKWMALECIHYRKFTHQSDVWSYGVTIWELMTFGGKPYDGIPTREIPDLLEKGERLPQPPICTIDVYMVMVKCWMIDADSRPKFKELAAEFSRMARDPQRYLVIQGDDRMKLPSPNDSKFFQNLLDEEDLEDMMDAEEYLVPQAFNIPPPIYTSRARIDSNRSEIGHSPPPAYTPMSGNQFVYRDGGFAAEQGVSVPYRAPTSTIPEAPVAQGATAEIFDDSCCNGTLRKPVAPHVQEDSSTQRYSADPTVFAPERSPRGELDEEGYMTPMRDKPKQEYLNPVEENPFVSRRKNGDLQALDNPEYHNASNGPPKAEDEYVNEPLYLNTFANTLGKAEYLKNNILSMPEKAKKAFDNPDYWNHSLPPRSTLQHPDYLQEYSTKYFYKQNGRIRPIVAENPEYLSEFSLKPGTVLPPPPYRHRNTVV
Kcat [3]: 0.0683 s⁻¹ | kcat [3]: 0.105 s⁻¹ | kinetic comparison with the known substrate (SEQ ID NO: 17), based on kcat/Km [3]: for all three kinases tested, peptide number 1 shown in Table 2 is kinetically at least equivalent (based on kcat/Km values) to the known peptide substrate identified by Jan et al. | Kcat [4]: 0.0767 s⁻¹ | Km [4]: 37.6 µM | kcat/Km [4]: 2000 M⁻¹ s⁻¹ | Kcat [5]: 0.065 s⁻¹ | Km [5]: 13.6 µM | kcat/Km [5]: 4670 M⁻¹ s⁻¹ | Kcat [6]: 0.0217 s⁻¹ | Km [6]: 12.5 µM | kcat/Km [6]: 1670 M⁻¹ s⁻¹ | Kcat [7]: 0.015 s⁻¹ | Km [7]: 6 µM | kcat/Km [7]: 2500 M⁻¹ s⁻¹ | Km [8]: 144 µM | kcat [8]: 0.0767 s⁻¹ | kcat/Km [8]: 533 M⁻¹ s⁻¹
